Where two headings read alike, the source gives them in different places.

As usually defined, the Kd is the concentration at which binding is half-saturated. Low values mean higher affinity, high ones lower affinity. By koff is commonly meant a measure of how fast the partners let go of each other. Low readings indicate slow dissociation, high ones fast dissociation. Usually kon stands for the rate constant with which the complex forms.

In test [1] the target is T1, WT mouse IL-18 on monoFc scaffold (mouse; human, UniProt P70380 36-192).
T1 construct: mature
T1 sequence (P70380 other isoform, or with tags, fused parts or gaps): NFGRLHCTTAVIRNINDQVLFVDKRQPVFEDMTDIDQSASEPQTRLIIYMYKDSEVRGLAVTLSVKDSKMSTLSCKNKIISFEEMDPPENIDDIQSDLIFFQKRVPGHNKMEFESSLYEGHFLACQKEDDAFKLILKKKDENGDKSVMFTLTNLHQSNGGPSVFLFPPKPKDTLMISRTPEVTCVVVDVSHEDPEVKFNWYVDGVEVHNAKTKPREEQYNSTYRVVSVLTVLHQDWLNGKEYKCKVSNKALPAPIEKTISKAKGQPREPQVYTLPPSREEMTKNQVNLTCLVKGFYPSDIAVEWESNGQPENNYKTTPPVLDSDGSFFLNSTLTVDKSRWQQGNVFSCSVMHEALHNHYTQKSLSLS
The test is described as follows: Octet BLI, monoFc scaffold. As to the method:
Octet 96red instrument was used to determine affinities of IL18 proteins to BP or receptors. 5-10 ug/ml analyte proteins were used for loading on Sartorius tips (AHC or SA). […] 120-180 s loading, 200 s association and 800 s dissociation were used for kinetics. 3-7 data points were used to calculate affinities.
Several mouse variants were next tested for binding affinity to mouse IL-18R alpha and mouse IL-18BP.

Test [2] has as its target T2, human IL-18 binding protein (IL-18BP) (human, UniProt O95998 31-194).
T2 construct: also called hu IL-18BP; hIL18BP
T2 sequence (looked up): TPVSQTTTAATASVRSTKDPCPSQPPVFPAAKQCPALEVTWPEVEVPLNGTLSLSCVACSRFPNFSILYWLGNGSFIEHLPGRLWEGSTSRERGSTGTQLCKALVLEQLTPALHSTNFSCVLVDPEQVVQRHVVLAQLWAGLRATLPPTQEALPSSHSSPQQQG
The test is described as follows: Octet BLI. In general terms: Biolayer interferometry detects binding as a change in optical thickness at a sensor tip.

Test [3] concerns the target T3, human IL-18R alpha/beta pair (IL-18Rab) (human, UniProt Q13478 19-329; O95256 20-356).
T3 construct: also called hu IL-18Rab
T3 sequence (looked up) 1: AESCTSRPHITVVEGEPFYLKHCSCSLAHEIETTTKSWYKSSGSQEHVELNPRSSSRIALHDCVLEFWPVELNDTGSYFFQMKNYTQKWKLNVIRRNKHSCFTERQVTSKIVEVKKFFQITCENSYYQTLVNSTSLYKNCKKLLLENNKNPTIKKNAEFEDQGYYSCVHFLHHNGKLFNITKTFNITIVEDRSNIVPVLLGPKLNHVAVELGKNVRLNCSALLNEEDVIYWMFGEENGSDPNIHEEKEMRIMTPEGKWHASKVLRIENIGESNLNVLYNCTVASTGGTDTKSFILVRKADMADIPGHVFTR
T3 sequence (looked up) 2: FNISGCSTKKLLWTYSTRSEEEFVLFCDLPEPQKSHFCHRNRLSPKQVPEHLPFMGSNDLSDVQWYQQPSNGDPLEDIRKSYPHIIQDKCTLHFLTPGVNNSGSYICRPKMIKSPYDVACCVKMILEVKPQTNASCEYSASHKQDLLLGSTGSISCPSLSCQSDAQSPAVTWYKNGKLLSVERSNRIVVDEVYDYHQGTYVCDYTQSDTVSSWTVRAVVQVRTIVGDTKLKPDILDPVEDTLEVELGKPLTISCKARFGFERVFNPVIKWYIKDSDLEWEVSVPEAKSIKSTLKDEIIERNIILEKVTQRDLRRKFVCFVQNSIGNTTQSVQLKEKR
The test is described as follows: Octet BLI.

Test [4] addresses T4, human IL-18 receptor alpha (IL-18Rα) (human, UniProt Q13478 19-329, limits assumed).
T4 construct: also called hu IL-18Ra; IL-18R alpha
T4 sequence (looked up): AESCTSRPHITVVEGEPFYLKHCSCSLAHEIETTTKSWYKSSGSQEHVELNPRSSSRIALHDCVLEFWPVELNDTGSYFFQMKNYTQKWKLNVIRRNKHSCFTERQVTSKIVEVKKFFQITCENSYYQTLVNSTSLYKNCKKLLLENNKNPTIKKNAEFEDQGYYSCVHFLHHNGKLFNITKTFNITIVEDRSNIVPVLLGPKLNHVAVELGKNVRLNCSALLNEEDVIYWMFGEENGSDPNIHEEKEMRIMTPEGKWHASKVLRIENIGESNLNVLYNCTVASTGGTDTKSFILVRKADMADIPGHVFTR
Nature of the test: Octet BLI.

The target in test [5] is T2, human IL-18 binding protein (IL-18BP). Nature of the test: Octet BLI. This is another data set of the same source.
In test [6] the target is T5, IL-18 receptor (IL-18Rα and IL-18Rβ) (UniProt Q13478 19-541; O95256 20-599, limits assumed).
T5 sequence (looked up) 1: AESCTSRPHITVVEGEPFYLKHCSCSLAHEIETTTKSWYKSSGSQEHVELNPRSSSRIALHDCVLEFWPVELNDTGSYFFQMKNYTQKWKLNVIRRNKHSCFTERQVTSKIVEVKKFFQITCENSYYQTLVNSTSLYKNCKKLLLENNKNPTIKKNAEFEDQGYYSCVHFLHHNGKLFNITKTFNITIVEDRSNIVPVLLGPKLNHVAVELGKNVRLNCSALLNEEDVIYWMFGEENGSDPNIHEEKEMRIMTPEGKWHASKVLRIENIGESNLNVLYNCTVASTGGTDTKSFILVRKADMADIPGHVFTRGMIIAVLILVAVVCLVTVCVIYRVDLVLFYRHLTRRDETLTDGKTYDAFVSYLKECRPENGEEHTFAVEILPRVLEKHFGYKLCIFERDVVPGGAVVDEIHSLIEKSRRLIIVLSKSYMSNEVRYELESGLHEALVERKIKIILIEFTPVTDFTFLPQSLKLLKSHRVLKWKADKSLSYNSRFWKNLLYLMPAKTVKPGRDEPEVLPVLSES
T5 sequence (looked up) 2: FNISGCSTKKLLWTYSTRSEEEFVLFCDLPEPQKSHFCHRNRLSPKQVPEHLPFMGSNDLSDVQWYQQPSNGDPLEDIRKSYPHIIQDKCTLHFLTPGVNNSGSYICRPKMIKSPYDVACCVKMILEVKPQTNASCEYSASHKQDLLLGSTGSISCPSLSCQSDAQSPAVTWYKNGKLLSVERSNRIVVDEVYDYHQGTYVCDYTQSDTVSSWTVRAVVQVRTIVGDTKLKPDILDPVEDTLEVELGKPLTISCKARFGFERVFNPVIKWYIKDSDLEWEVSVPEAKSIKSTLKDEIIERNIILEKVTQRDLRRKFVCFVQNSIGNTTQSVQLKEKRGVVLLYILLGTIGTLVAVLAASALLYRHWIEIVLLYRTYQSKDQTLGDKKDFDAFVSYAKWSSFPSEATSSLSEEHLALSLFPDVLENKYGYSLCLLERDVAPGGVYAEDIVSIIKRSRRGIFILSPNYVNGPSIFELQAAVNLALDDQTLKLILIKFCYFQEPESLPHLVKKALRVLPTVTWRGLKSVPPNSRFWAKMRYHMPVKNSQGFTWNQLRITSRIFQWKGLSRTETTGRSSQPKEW
The test is described as follows: cell-based or functional assay.

For test [7], the target named is T2, human IL-18 binding protein (IL-18BP). The test is described as follows: cell-based or functional assay.
Test [8] concerns the target T6, IL-18 receptors on HEK-Blue IL-18 reporter cells (InvivoGen) (UniProt Q13478 19-541; O95256 20-599).
T6 sequence (looked up) 1: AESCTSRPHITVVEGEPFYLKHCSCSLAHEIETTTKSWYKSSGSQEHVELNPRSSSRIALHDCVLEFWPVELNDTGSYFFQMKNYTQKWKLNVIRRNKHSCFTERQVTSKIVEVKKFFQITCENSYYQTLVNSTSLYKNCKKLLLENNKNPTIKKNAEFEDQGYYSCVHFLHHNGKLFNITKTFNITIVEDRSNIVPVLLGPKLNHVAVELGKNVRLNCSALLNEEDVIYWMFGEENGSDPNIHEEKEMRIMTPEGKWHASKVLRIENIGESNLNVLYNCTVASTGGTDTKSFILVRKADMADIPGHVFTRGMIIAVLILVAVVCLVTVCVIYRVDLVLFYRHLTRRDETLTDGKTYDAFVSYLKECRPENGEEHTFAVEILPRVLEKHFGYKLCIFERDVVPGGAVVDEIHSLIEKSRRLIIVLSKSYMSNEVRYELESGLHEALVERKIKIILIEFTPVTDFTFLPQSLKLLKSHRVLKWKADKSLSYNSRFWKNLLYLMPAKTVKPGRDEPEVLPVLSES
T6 sequence (looked up) 2: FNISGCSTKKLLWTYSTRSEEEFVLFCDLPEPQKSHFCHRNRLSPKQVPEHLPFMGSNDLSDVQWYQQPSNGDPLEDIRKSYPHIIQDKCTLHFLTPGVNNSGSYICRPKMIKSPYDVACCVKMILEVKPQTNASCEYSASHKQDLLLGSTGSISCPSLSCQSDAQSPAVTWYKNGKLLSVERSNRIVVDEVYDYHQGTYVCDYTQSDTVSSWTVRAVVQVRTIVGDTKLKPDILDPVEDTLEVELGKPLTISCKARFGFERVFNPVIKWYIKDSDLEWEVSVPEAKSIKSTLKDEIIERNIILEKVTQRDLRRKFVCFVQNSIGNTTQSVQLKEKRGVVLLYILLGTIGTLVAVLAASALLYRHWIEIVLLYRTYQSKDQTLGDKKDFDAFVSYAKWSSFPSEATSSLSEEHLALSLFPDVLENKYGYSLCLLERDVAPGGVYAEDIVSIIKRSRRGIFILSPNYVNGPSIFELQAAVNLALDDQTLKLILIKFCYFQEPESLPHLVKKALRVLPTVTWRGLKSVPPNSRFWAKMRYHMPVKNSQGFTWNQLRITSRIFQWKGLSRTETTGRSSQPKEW
The test is described as follows: cell-based or functional assay.

The target in test [9] is T2, human IL-18 binding protein (IL-18BP). The test is described as follows: cell-based or functional assay. The source holds these as a separate data set.
Test [10] concerns the target T6, IL-18 receptors on HEK-Blue IL-18 …. Nature of the test: cell-based or functional assay. This is another data set of the same source.

B1: mouse IL-18 binding protein (other, UniProt Q9Z0M9 29-193, looked up)
chain: TSAPQTTATVLTGSSKDPCSSWSPAVPTKQYPALDVIWPEKEVPLNGTLTLSCTACSRFPYFSILYWLGNGSFIEHLPGRLKEGHTSREHRNTSTWLHRALVLEELSPTLRSTNFSCLFVDPGQVAQYHIILAQLWDGLKTAPSPSQETLSSHSPVSRSAGPGVA
notes: also called Mouse IL18BP; Mouse IL-18BP
In [1], B1 had a Kd of 2.24 nM.

B2: IL-18 variant G3E, K53S (ligand)
chain: YFEKLESKLSVIRNLNDQVLFIDQGNRPLFEDMTDSDMRDNAPRTIFIISMYSDSQPRGMAVTISVKSEKISTLSSENKIISFKEMNPPDNIKDTKSDIIFFQRSVPGHDNKMQFESSSYEGYFLASEKERDLFKLILKKEDELGDRSIMFTVQNED
Consider B2, for which the Kd was found to be 396 nM in test [2], 0.31 nM in test [3], 8920 nM in [4] and 396 nM in [5]. In [5], this molecule displayed a koff of 0.0311 s⁻¹. The molecule further showed an on-rate constant (kon) in test [5] of 78500 M⁻¹ s⁻¹. For the same molecule, the “EC50 pM, IFN gamma expression in PBMCs” value in test [6] was 517 pM. Besides, the “HEK-Blue Activity Assay Ec50 (pM), +50 nM hu IL-18BP” value in test [7] is 4.41 pM. Besides, the “HEK-Blue Activity Assay Ec50 (pM), -hu IL-18BP” value in [8] was found to be 2.69 pM. Moreover, the “HEK-Blue Ec50 (pM), +IL-18BP (50 nM)” value in test [9] came to 4.41 pM. Further, the “HEK-Blue Ec50 (pM), -IL-18BP” value in test [10] is 2.69 pM.

Source of the values: US20240182536A1 (MURAL ONCOLOGY, published 2024).
